Data as given in IntAct's records for PubMed 19375531.

B1: AH receptor-interacting protein (Homo sapiens), O00170 (parent)
chain: MADIIARLREDGIQKRVIQEGRGELPDFQDGTKATFHYRTLHSDDEGTVLDDSRARGKPMELIIGKKFKLPVWETIVCTMREGEIAQFLCDIKHVVLYPLVAKSLRNIAVGKDPLEGQRHCCGVAQMREHSSLGHADLDALQQNPQPLIFHMEMLKVESPGTYQQDPWAMTDEEKAKAVPLIHQEGNRLYREGHVKEAAAKYYDAIACLKNLQMKEQPGSPEWIQLDQQITPLLLNYCQCKLVVEEYYEVLDHCSSILNKYDDNVKAYFKRGKAHAAVWNAQEAQADFAKVLELDPALAPVVSRELRALEARIRQKDEEDKARFRGIFSH

Variants of: B1
Conditions: with hs90b_human HSP90AB1, P08238
Chain of hs90b_human HSP90AB1, P08238 (P08238 whole entry): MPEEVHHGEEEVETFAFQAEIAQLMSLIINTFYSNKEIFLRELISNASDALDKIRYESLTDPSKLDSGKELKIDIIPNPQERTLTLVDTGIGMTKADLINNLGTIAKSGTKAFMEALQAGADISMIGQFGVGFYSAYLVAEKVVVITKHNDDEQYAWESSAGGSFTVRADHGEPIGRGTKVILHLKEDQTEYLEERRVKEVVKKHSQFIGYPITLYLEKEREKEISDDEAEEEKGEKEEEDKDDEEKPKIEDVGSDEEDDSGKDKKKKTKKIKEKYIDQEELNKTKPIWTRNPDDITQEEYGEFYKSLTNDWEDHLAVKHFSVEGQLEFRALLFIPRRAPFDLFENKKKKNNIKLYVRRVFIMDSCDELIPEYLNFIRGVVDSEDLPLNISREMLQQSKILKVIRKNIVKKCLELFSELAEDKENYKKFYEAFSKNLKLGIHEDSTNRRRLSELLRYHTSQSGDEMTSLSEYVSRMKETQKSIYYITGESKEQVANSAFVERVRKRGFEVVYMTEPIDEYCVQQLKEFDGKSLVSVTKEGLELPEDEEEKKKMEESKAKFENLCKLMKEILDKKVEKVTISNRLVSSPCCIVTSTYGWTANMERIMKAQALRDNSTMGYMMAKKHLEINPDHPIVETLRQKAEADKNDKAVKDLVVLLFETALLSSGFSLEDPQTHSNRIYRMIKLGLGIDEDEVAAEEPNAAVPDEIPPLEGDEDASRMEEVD

effect of a mutation on the interaction | Variant
disrupting interaction | MADIIARLREDGIQKRVIQEGRGELPDFQDGTKATFHYRTLHSDDEGTVLDDSRARGKPMELIIGKKFKLPVWETIVCTMREGEIAQFLCDIKHVVLYPLVAKSLRNIAVGKDPLEGQRHCCGVAQMREHSSLGHADLDALQQNPQPLIFHMEMLKVESPGTYQQDPWAMTDEEKAKAVPLIHQEGNRLYREGHVKEAAAKYYDAIACLKNLQMKEQPGSPEWIQLDQQITPLLLNYCQCKLVVEEYYEVLDHCSSILNKYDDNVKAYFKAGKAHAAVWNAQEAQADFAKVLELDPALAPVVSRELRALEARIRQKDEEDKARFRGIFSH [R271A]
disrupting interaction | MADIIARLREDGIQKRVIQEGRGELPDFQDGTKATFHYRTLHSDDEGTVLDDSRARGKPMELIIGKKFKLPVWETIVCTMREGEIAQFLCDIKHVVLYPLVAKSLRNIAVGKDPLEGQRHCCGVAQMREHSSLGHADLDALQQNPQPLIFHMEMLKVESPGTYQQDPWAMTDEEKAKAVPLIHQEGNRLYREGHVKEAAAKYYDAIACLKNLQMKEQPGSPEWIQLDQQITPLLLNYCQCKLVVEEYYEVLDHCSSILNKYDDNVAAYFKRGKAHAAVWNAQEAQADFAKVLELDPALAPVVSRELRALEARIRQKDEEDKARFRGIFSH [K266A]
